# Experimental data published in patent CN114539420A (SUZHOU INSTITUTE OF RESEARCH OF PSEUDO UNIV, dated 2022).
# T1: 重组人B7-H3蛋白 (recombinant human B7-H3-ECD protein, 11188-H08H, SinoBiological) (human, UniProt Q5ZPR3 29-466)
# T1 construct: extracellular domain; Bought protein; The EC50 sentence says only 'human B7-H3 protein'; also called 人B7-H3重组蛋白; 重组人B7-H3-ECD蛋白
# T1 sequence (looked up): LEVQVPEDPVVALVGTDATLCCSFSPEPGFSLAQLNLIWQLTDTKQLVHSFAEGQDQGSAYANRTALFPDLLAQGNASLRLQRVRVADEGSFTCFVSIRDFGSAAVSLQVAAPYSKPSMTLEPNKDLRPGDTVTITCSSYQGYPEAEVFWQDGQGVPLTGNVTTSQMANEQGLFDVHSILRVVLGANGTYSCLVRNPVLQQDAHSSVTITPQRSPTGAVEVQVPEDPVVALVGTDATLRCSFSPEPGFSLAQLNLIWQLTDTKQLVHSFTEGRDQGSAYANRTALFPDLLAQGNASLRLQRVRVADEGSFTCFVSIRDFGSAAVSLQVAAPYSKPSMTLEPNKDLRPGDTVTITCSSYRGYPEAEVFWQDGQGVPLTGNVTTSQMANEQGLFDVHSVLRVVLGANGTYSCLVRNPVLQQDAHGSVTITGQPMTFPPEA
# B1: 嵌合单克隆抗体10-2#c (chimeric anti-B7-H3 monoclonal antibody) (antibody, human IgG1, V domains shown)
# VH: EVQLQQSGPALVKPGTSVKISCKTSGYTFTEYIIHWVKQSHGKSLEWIGGINPNNGGTSYNQKFKGKATLTVDKSSSTAYMELRSLTSEDSAVYYCASRLAPSTAGFAYWGQGTMLTVSS
# VL: DIVLTQTPAIMSASPGEKVTMTCRASSSVSYMHWYQQRSGTSPKTWIYDTSKLASGVPGRFSGSGSGTSYSLTISIMEAEDAATYYCQQWSSNPPTFGGGTKLEIK
# notes: also called 抗B7-H3单克隆抗体; 嵌合抗体10-2#c
# Molecular target: T1, 重组人B7-H3蛋白 (recombinant human B7-H3-ECD …)
# Experiment: ELISA on recombinant human B7-H3 protein (Fig. 2a, n=3)
binder,measurement,value
B1,EC50,2.22 ng/mL
